Source: the DeepSol protein solubility set

Test: soluble on expression in E. coli; label from the status in PepcDB or PDB records

Sequence | soluble on expression in E. coli
MDSLKGMAIFATVVDKGSMAAAAQSLGMTPSAVSQQIRKLESRAQVTLLHRTTRRLTLTEAGEAFYRSCAQMLAIAEEAERRLGEWRDAPVGELRLAAPVGFSGTLITQALKPLLENHRQLRLQLFFQDERIDLVAERIDLAIRVGNLADSSLVARHLGDWSSVLCAAPAYLRQRAPINRPEQLTEVDWISLNTSNHLNHLTLSGPGGEVCKLRLEPRVAANGMLAVRQFTLDGLGVSYQPLPEVRDALNDGRLQQLLPEWRIPGLGIYAVTPRREAQPAKVKVAIEALRRAFATDGDERWS | not soluble
MADYWKDVLPVDPYVVKSRSMLQDIDRQIITQLYQPLIGPVAFSLYMTLWGELEQNRLWGGESTHRQLMGMTQSNLKTIHQEQGKLEGIGLLKVYMKESERQERLFIYELLPPLRPNEFFEDGMLNVFLYNRVGKTKYQQLKQFFTHPAISEDAKDITRPFNHAFESLQPSEWKLTSDMEETVRLAEGSEYTSVGQSPSYTITEDVFDFDLFLAGLSETMIPRKAMTQQVRDTIKKLSYLYGIDPLQMQNVVMSAIDERDVITTEALRKAASDWYQIERNGQLPDLVEKTQPVHLREGEQPAEEDSLDGKLIALLEAISPKKLLQDIADGTEPSKADLKIIEEIMFEQKLEPGVTNVLIYYVMLKTDMKLSKNYIQKIASHWARKKVKTVREAMKLAIEENRQYLEWAEGKTKSSKRNQKVIREEKLPDWMTEKETASDSESGQQKLHPQDLEEQKKKMMEEMQKLKKYSAY | not soluble
MYNDEELITVQPEAFKALTPSKKFNETSNKLLDLAYSDDGNNLIVSAEDVVLVYDLRDGSKGKSIECKKYGVNCLEYLDTVKCVHSGPNDTTIRLLHLQKKSYVRYFDGHRMPVNFIRTNPKDREKFLSSSVDGEIRMFDTRTFENYGCLLAGHTPLIAFDPDGILFAVATKSDTIKLFDMRSFDLGPFQSFIITKTDNDEWSDIEFSPCGKFILISTTAGSVKWIDAFDGTLIHSFSQHKNPNVSFF | not soluble
MELINKDTLQIKEFISSLDSMLDGIESIVKHYKPHLNGERFLSNNEVSKKLNVSLRTLQEWRDTGLIPFIQIKGKIIYRQSDIDKLLQKHYFEGWKE | not soluble
MFGFSNSDISVSSGHTSHLDEVLPQSMYMVDADGRMVRWSPWFRDRIAGFSDAEMASTDFLELIHPEDRALVRQRMRKILDQGVQDSLEVRIFLKGGPAFRWFLLMANRYEYAGHYFITGTGIDIT | not soluble
MNAPRCLRRLLERQWRQGGWLSTLLRPLAALTGLVVARKRNAYLTGARAAWRAPVPVVVVGNIYVGGTGKTPVVIEVVRQLQARGWTPGVVSRGYGVDVGAAPRVGQGQLAAADYGDEPALIARATGAAIAVHPHRPRAVQALLRAHPGVDVVVSDDGLQHLALARDVEIVVQDERGVGNGRLLPAGPLREPAQRLADVDAIVTNAGRPRAAAAPAAGAPRQLAMWLEPTHAQRVTDGATRTLADLAALPPARLAAAAGIGNPARFFQTLEQAGIRPAHTLALPDHYAYAQSPFTALDADLILVTAKDAIKCAALDDPRLWAVQVGTRLSDPDFGDWLSATLRARQPKLAAALEHHHHHH | not soluble
GMKIDGETRSARKDREIIQAATAAFISKGYDGTSMEEIATKAGASKQTVYKHFTDKETLFGEVVLSTASQVNDIIESVTTLLSEAIFMEGGLQQLARRLIAVLMDEELLKLRRLIIANADRMPQLGRAWYEKGFERMLASTASCFQKLTNRGLIQTGDPYLAASHLFGMLLWIPMNEAMFTGSNRRSKAELERHADASVEAFLAVYGVQPK | soluble
MGSDKIHHHHHHMLMTPDEDRITQLYEAFNRRAFDRCIAMLAPDVSWPDELEDRRLEGLDAVRAYLDHAIAPLRVCYQPIALFTPSPGQIEVLARQTVLSATDGSLWSSLRVRHRYTIKDGLFTHLESEQNYTAPTFEGVDRLLRRLYDAINAGDVDGAAACFGDHACFEDKLEDGPISGPAAIRAHFEHLFATLQVTATMCDYALEPDDRVRVRLQVEARGATGRLWHDGGVTAWYRLEGGLIVGQDVDDSGEEAP | not soluble
MGSDKIHHHHHHMTKAKYQQIEEILRRQITNGHYQEGDLIPKEFDLAEKYQVSRPTIRHAVQDLVNQGYLERRKHVGTIVKQTKIGQEFTHVLQSYNSEMSQKGLIAQTQVLFFKKEKASAEVAKALDLTENAPVYKLTRLRSADGNPIVLVTTYLPASKLSDFEKIDFTQQSLYQELEKRSLPIVHVKRKLEVKSADEMTANLLNIEEKVPIFYFHTYGYTKGEVPLEYSIAMYRGDENYFVIDLKR | not soluble
MLELLYTALLYLIQPLIWIRLWVRGRKAPAYRKRWGERYGFYRHPLKPGGIMLHSVSVGETLAAIPLVRALRHRYPDLPITVTTMTPTGSERVQSAFGKDVQHVYLPYDLPDALNRFLNKVDPKLVLIMETELWPNLIAALHKRKIPLVIANARLSARSAAGYAKLGKFVRRLLRRITLIAAQNEEDGARFVALGAKNNQVTVTGSLKFDISVTPQLAAKAVTLRRQWAPHRPVWIATSTHEGEESVVIAAHQALLQQFPNLLLILVPRHPERFPDAINLVRQAGLSYITRSSGEVPSTSTQVVVGDTMGELMLLYGIADLAFVGGSLVERGGHNPLEAAAHAIPVLMGPHTFNFKDICARLEQASGLITVTDATTLAKEVSSLLTDADYRSFYGRHAVEVLYQNQGALQRLLQLLEPYLPPKTHLEHHHHHH | soluble
MLKDEYGRVVTNLRIAVTKKCNLRCFYCHKEGESNPGEEISAERIVEIARAFKELGVRKLKITGGEPLLRKDLPDIILNLPEFEEISMTTNGILLEKYAEELRECGLSRVNVSLDTLDAEKYRWITGGGEVQKVVNGIEKACEVGLTPVKINMLVLGGVNDNEVDELLEFTNSFNRGNTKAILQVIELVPFPGFEKYFFDISTIEEKYARMATQRRVRAMHRRTQYFTPKGVIEFVKPMDNTAFCMHCNRMRVTSDGKLKPCLLRNETITIDGKHGEELARAIIETVRKREPYFKG | not soluble
MSTLLPFPCEEKIPEGKYVLRTFEIKEGQVKEKLKDLNYEILASLSGVDLTFEKEEEWKKAKEILSDYVYTDRPESLEETLGRILKEKGFTLSTAESCTAGMLSSRIVNVPGSSEYFVGGFVVYSNDLKVKYLCVSEDTLKKYGAVSWQTCLEMTVGLKSNLGTDCGIAITGIAGPGGTLTKPQGLTYIGIFVKDKLTVIKRIFKGSRNENRFLSTQTAIFYLLKLLKR | soluble
MSLKISEVATPNFLLDLDQLEKNIDKIQQICTNNNKQLWPMLKTHKSTYIARLQKNAGASGFLVGTLDEGEALIKAGFEDIMLAYPYMGEVNINRIVTMASKINLICATDNIECAKAYSEAFSKSKIECKLLIIVDCGLHRFGVEPEKVVELATEISKLENIKIVGISSHPGQVYGCSSPEGVPDVCVQEDSSMEKAYKALTDNGFNIEIVASGSTPTVESEAACKTITAVRPGNYVYYDAIQIGLGCATEDMCALTVVCTVISKNSSGYYLIDCGSKCLGLDKGAHGNSSIVGYGRVCGHPELTIDSLSEEVGKIKVNGETDIKIGDRIRIIPNHSCSTANLTSNLLGFRGDTIEKVIEVDIRENSEGHHHHHH | soluble
MKIVDVLCTPGLTGFYFDDQRAIKKGAGHDGFTYTGSTVTEGFTQVRQKGESISVLLVLEDGQVAHGDCAAVQYSGAGGRDPLFLAKDFIPVIEKEIAPKLIGREITNFKPMAEEFDKMTVNGNRLHTAIRYGITQAILDAVAKTRKVTMAEVIRDEYNPGAEINAVPVFAQSGDDRYDNVDKMIIKEADVLPHALINNVEEKLGLKGEKLLEYVKWLRDRIIKLRVREDYAPIFHIDVYGTIGAAFDVDIKAMADYIQTLAEAAKPFHLRIEGPMDVEDRQKQMEAMRDLRAELDGRGVDAELVADEWCNTVEDVKFFTDNKAGHMVQIKTPDLGGVNNIADAIMYCKANGMGAYCGGTCNETNRSAEVTTNIGMACGARQVLAKPGMGVDEGMMIVKNEMNRVLALVGRRK | soluble
DDSAVTLFIPGYAGNRFSFGGMLQRFTAGGIANKSLVVMIDRHNHPHVTGELDAYRPMVQLIFATPRVAVRQQAAGVLAVVQYLIAHEHVQTINLVAHSMGGVVLFQYLTTAAKLVNLPEVRKVVTIGAPFNDSEVGQNTYPIENHPLTATGPTKTTPVYNYFLRTLQRLPNTISYLNIAGNIGDAAQSDGAVALNSALSLRFLLRPTRDQYQEFVVHGKNARHSRLHENYEVDRQIVQFFISRSHKKGCW | not soluble
